One assay concerns the target LIGHT protein (UniProt O43557 1-240). Description: spectral shift (SpS); Monolith X; HVEM-His labelled with His-Tag Labeling Kit RED-tris-NTA 2nd Generation, final 50 nM; peptides 2 µM to 6.1 pM; PBS-T (0.05% Tween-20, 0.3 M NaCl, pH 7.4); fluorescence ratio 670/650 nm; 25 °C; apparent Kd (peptides aggregated at higher concentrations). The note with it: both partners purified.

The target of assay [1] is T1, HVEM-His protein (Homo sapiens, UniProt Q92956).
T1 construct: purchased ACROBiosystems
T1 sequence (Q92956 39-283): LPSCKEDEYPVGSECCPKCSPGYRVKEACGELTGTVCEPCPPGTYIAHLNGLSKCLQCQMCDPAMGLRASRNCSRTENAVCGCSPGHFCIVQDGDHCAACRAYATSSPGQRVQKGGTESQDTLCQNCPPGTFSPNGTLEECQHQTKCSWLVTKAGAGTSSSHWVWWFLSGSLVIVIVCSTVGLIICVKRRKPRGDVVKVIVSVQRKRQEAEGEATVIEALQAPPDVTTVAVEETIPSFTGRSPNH
Description: Spectral shift (SpS) affinity of peptides to HVEM. The conditions noted are these: spectral shift (Monolith X, 670/650 nm), 50 nM RED-tris-NTA labelled HVEM-His, ligand 2 µM to 6.1 pM, PBS-T pH 7.4 with 0.3 M NaCl, 25 °C; mean of triplicate; apparent, approximate value only. Type of assay: binding. As for the experimental part:
Based on the computer analyses conducted for the designed peptides in complex with the HVEM, five compounds – peptides light1, light2, light3, light4, and light3_E178L were selected for experimental validation and their affinity to HVEM was evaluated using SpS.Fluorescence intensity was measured at 670 and 650 nm (Figure S4). […] Due to the fact that peptides at higher concentrations aggregated, it was not possible to fully determine the Kd. Therefore, only the apparent Kd values were determined and were used for HVEM binding strength comparison. Note that apparent Kd is only approximate value and should be used only for qualitative comparison.
SpS experiments were conducted using the Monolith X instrument (Nanotemper, Munich, Germany). Protein labelling was performed using the His-Tag Labeling Kit RED-tris-NTA 2nd Generation (Nanotemper, Munich, Germany). To prepare the fluorescent dye solution at concentration 0.1 µM, 2 µL of a 5 µM dye stock was diluted in 98 µL of deionized water. […] The mixtures were loaded into Monolith X-compatible capillary tubes, and fluorescence ratios (670/650 nm) were measured at 40% excitation power and average IR laser power at a temperature of 25 °C. Data were analyzed using MO.Control 2 software (version 2.5.4, NanoTemper, Munich, Germany). […]

The target in assay [2] is T1, HVEM-His protein. The note with it: SpS technique; previously determined by the authors; read-out: Kd of LIGHT binding to HVEM; cited from earlier work.
A further assay addresses HVEM. Set-up: method as in 2 sources, ref 11 = [11]; PMID 25087510; doi:10.1016/j.str.2014.06.013; 11. Liu W Mechanistic basis for functional promiscuity in the TNF and TNF receptor superfamilies: structure of the LIGHT:DcR3 assembly Structure 2014 22 1252 10.1016/j.str.2014.06.013 25087510 PMC4163 ||| ref 41 = [41]; PMID 20175993; doi:10.1016/j.bbrc.2010.02.119; 41. Morishige T Creation of a lysine-deficient LIGHT mutant with the capacity for site-specific pegylation and low affinity for a decoy receptor Biochem. Biophys. Res. Commun. 2010 393 888 893 10.1016. The note with it: other research group, read-out: Kd of HVEM/LIGHT complex, cited from earlier work.

Like-named read-outs stand apart in the source and are kept apart here.

In paper PMC12623744 (Scientific Reports, 2025) one finds Kd data, which are given here for 2 molecules.

B1: HVEM-His protein (receptor, UniProt Q92956 39-202, looked up)
chain: LPSCKEDEYPVGSECCPKCSPGYRVKEACGELTGTVCEPCPPGTYIAHLNGLSKCLQCQMCDPAMGLRASRNCSRTENAVCGCSPGHFCIVQDGDHCAACRAYATSSPGQRVQKGGTESQDTLCQNCPPGTFSPNGTLEECQHQTKCSWLVTKAGAGTSSSHWV
modifications: labelled with RED-tris-NTA 2nd Generation dye on the His tag (spectral shift only)
notes: Herpes virus entry mediator (HVEM); No catalogue number printed; also called herpes virus entry mediator; source: bought: ACROBiosystems
For the molecule B1, the Kd with LIGHT protein was determined as 920 nM.

B2: LIGHT: LIGHT protein, TNFSF ligand of HVEM (protein)
chain: MEESVVRPSVFVVDGQTDIPFTRLGRSHRRQSCSVARVGLGLLLLLMGAGLAVQGWFLLQLHWRLGEMVTRLPDGPAGSWEQLIQERRSHEVNPAAHLTGANSSLTGSGGPLLWETQLGLAFLRGLSYHDGALVVTKAGYYYIYSKVQLGGVGCPLGLASTITHGLYKRTPRYPEELELLVSQQSPCGRATSSSRVWWDSSFLGGVVHLEAGEKVVVRVLDERLVRLRDGTRSYFGAFMV
Take B2: the Kd is 920 nM with HVEM-His protein [1], 920 nM in the assay with HVEM-His protein [2], 18.7 nM at HVEM (ref 11) and 1.5 nM on HVEM (ref 41).
